In patent US20080311122A1, “Antagonists of Hmgb1 and/or Rage and Methods of Use Thereof” (Medimmune, LLC, priority 2005, published 2008):
Like-named read-outs stand apart in the source and are kept apart here.

Key:
mouse macrophages = test: TNF-a induction in mouse macrophages; assay type: cell-based
Description: TNF-a Induction: To examine mRNA levels macrophages were derived from mouse bone marrow using M-CSF. Macrophages were then stimulated by LPS, E. coli produced recombinant HMGB1 or HMGB1 purified from bovine thymus for indicated length of time and mRNA is measured by Taqman. To examine protein levels thioglycant activated mouse peritoneal macrophages were stimulated with 10 μg/mL of HMGB1 purified from bovine thymus or recombinant HMGB1 generated from E. coli for 24 hr. Cytokines in the supernatant were measured by ELISA.

[1] = tested on: CpG2216+thymus HMG1 induced IFN-a release (TLR9 signaling); test: Inhibition of HMG1 mediated enhancement of TLR9 signaling, CpG2216 + thymus HMG1 in bone marrow cells; assay type: cell-based; conditions: mouse bone marrow cells
Description: HMGB1+TLR Ligand: Freshly isolated bone marrow cells were stimulated with TLR ligands (TLR3:PolyIC@5 μg/mL; TLR4:LPS@2.5 ng/mL; TLR5:flagellin@0.25 μg/mL; TLR7:polyU@4 μg/mL or R837@5 μg/mL; TLR9:CpG2216@1 μM) with or without presence of thymus HMGB1 (10 μg/mL) for 24 hr. Cytokines in the supernatant were measured by ELISA.
Inhibition of HMG1 Mediated Enhancement of TLR Signaling: Freshly isolated bone marrow cells were stimulated with TLR9 ligand CpG2216 (0.3 μM) and thymus HMGB1 (10 μg/mL) in the presence of different concentration of the anti-HMGB1 mAb E11 or control human IgG for 24 hr and IFN-a in the supernatant was measured by ELISA. CpG2216, HMGB1 and nonstimulatory DNA were used alone or in combination as controls for the assay.

[2] = target: T1, interaction of CpG and HMGB1 (Bos taurus, UniProt P10103); test: CpG ELISA, HMGB1 binding to CpG
T1 construct: from tissue; host or cells: bovine thymus
T1 sequence (P10103 2-215 limits assumed): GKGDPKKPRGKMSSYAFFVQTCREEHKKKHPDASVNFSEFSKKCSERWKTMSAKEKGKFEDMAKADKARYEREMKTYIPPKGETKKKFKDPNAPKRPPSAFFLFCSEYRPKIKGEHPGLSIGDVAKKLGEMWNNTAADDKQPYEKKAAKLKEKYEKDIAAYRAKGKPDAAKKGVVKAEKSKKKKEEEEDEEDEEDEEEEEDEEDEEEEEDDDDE
Description: CpG ELISA: Proteins or peptides were diluted in PBS to the concentration of 5 μg/ml and coated onto plates at 4° C. o/n. Plates were blocked with 4% dry milk in PBS. Biotin labeled CpG-A alone or in complex with HMGB1 were incubated in the plates at 37° C. for 1 hr. and detected with HRP labeled strep-avidin.

AM14 B cells = test: AM14 proliferation assay; assay type: cell-based, mouse; conditions: for inhibition of DNA immune complex (PL2-3) dependent proliferation of AM14 B cells: thymidine incorporation
Description: AM14 proliferation assay: Purified AM14 B cells were preincubated with RAGE-Fc or control human IgG1 for 30 min at 37° C., and stimulated with 0.1 μg/ml of PL2-3 for 24 h at 37° C. Cells were then pulsed with [^3H]thymidine for 6 h.

[3] = tested on: HMG1 stimulated cytokine gene expression in mouse macrophages; test: Taqman analysis of mouse macrophages (mMØ) stimulated with HMG1; assay type: cell-based; conditions: rHMG1
Description: Taqman Analysis of Mouse Macrophages (mMØ) Stimulated with HMG1: Mouse bone marrow was harvested by rinsing the femurs of normal C57BL/6 mice. The isolated bone marrow cells were then cultured in Dulbecco's modified Eagle's medium (DMEM) supplemented with 10% fetal bovine serum (FBS) and 50 ng/ml M-CSF for 24 h, nonadherent cells were collected and grown for 6 days in complete DMEM supplemented with 10% FBS and 50 ng/ml M-CSF in T-75 flasks (1×10^7 cells/15 ml/flask). On day 6, adherent cells were harvested and reseeded with 5 ng/ml MCSF in α-MEM containing 10% FBS in 96-well plates (1×10^5 cells/200 μl/well) overnight.
The culture medium was replaced with α-MEM and incubated for 2 hours before stimulation to starve cells. HMGB1 (recombinant CBP-HMGB1 fusion protein generated from E. coli at 10 μg/ml), mouse-RAGE-Fc or human-RAGE-Fc fusion protein were pre-mixed with various blocking reagents at 100 μg/ml in α-MEM for 20 min at RT, then 100 μl of the mixtures was added to the cells and incubated at 37° C. for 2 hours. The supernatant was then removed, and the RNA was extracted using Ambion's MagMAX™-96 Total RNA Isolation Kit. All of the recovered RNA were used in a reverse transcriptase (RT) reaction with SuperScript™ III and oligo(dT) primer (Invitrogen) for synthesis of cDNA. 1 μl or 2 μl of the resulting cDNA was used for real time quantitative PCR analysis (TaqMan) using ABI Prism 7700 or 7000.

B1: rHMG1: E. coli produced recombinant HMG1 (CBP fusion protein) (protein)
chain: MGKGDPKKPRGKMSSYAFFVQTCREEHKKKHPDASVNFSEFSKKCSERWKTMSAKEKGKFEDMAKADKARYEREMKTYIPPKGETKKKFKDPNAPKRPPSAFFLFCSEYRPKIKGEHPGLSIGDVAKKLGEMWNNTAADDKQPYEKKAAKLKEKYEKDIAAYRAKGKPDAAKKGVVKAEKSKKKKEEEEDEEDEEDEEEEEDEEDEDEEEDDDDE
modifications: left off: small tags and cut ends
B1 was tested, and the “induction of TNF-a mRNA levels” value (mouse macrophages; 2 hours) was ~43 fold and the “increase in TNF-a protein levels” value (mouse macrophages; 24 hours, supernatant) was ~10 fold.

B2: A-box: synthesized HMGB1 A-box peptide (SEQ ID NO: 108), a known HMGB1 antagonist (peptide, listed as Homo sapiens)
chain: PRGKMSSYAFFVQTCREEHKKKHPDASVNFSEFSKKCSERWKTMSAKEKGKFEDMAKADKARYEREMKTYIPPKGET
With B2 the “inhibition of IFN-a release induced by CpG + thymus HMG1” value [1] was “inhibit IFN-a release”, the “inhibition of IFN-a release induced by CpG + thymus HMG1” value ([1]; listed as HMGB1 A-box) was “did not show inhibition in this assay” and the “inhibition of the interaction of CpG and HMGB1” value [2] was “inhibit the interaction of CpG and HMGB1”. The “inhibition of the interaction of CpG and HMGB1” value ([2]; listed as A box HMGB1) was “prevented the binding of HMGB1 to CpG DNA”, the “effect on TLR2, TLR4 ligand induced proliferation or BCR mediated B cell activation” value (AM14 B cells) was “had no effect” and the “inhibition of DNA immune complex (PL2-3) dependent proliferation of AM14 B cells” value (AM14 B cells; listed as A box antagonist) was “reduced proliferation”. The “inhibition of DNA immune complex (PL2-3) dependent proliferation of AM14 B cells” value (AM14 B cells; listed as HMGB A box) was “markedly inhibited PL2-3-dependent proliferation of AM14 B cells”.

B3: mouse RAGE-Fc fusion protein: mouse RAGE-Fc fusion protein (protein)
chain: QNITARIGEPLVLSCKGAPKKPPQQLEWKLNTGRTEAWKVLSPQGGPWDSVARILPNGSLLLPATGIVDEGTFRCRATNRRGKEVKSNYRVRVYQIPGKPEIVDPASELTASVPNKVGTCVSEGSYPAGTLSWHLDGKLLIPDGKETLVKEETRRHPETGLFTLRSELTVIPTQGGTHPTFSCSFSLGLPRRRPLNTAPIQLRVREPGPPEGIQLLVEPEGGIVAPGGTVTLTCAISAQPPPQVHWIKDGAPLPLAPSPVLLLPEVGHEDEGTYSCVATHPSHGPQESPPVSIRVTETGDEGPAEGSVGESGLGTLALA
modifications: left off: a dimerising Fc or GST
For B3, the “inhibition of HMG1-induced IL-1β gene expression” value [3] was “robustly inhibited” and the “inhibition of HMG1-induced TNF-a gene expression” value [3] was “robustly inhibited”.
